From patent publication US20260234655A1, “Nuclear Targeted DNA Delivery and Compositions for Use in Practicing the Same” (Seawolf Therapeutics, Inc., priority 2022, published 2026)

How the values were obtained:
[1] = system: primary human hepatocytes; assay: pDNAs containing DTSs transfected into primary human hepatocytes; GFP by quantitative live-cell imaging and FACS; type: cell-based; settings: 24 h post-transfection
Source text: (§1) DNA construct design. Each DTS was constructed in pentameric repeat using a 15 bp spacer between each TFBS. The DTS was appended just 5′ to the promoter, effectively in a putative enhancer region. Various promoters were employed in these constructs, including CBh (a variant of the CAG promoter) and TTR. Several reporter genes were employed in these constructs, including enhanced Green Fluorescent Protein (eGFP). The polyadenylation (polyA) signal is a BGH-PolyA sequence. For pooled screening, unique molecular identifiers (UMIs; also known as barcodes) were used to distinguish between DNA constructs in a pool, and the UMIs were appended to the 3′UTR immediately downstream of the stop codon of eGFP, just preceding the BGH-PolyA sequence.
Plasmid DNAs (pDNAs) containing various DTSs were transfected into primary human hepatocytes. GFP expression was quantified 24 h post-transfection by measuring GFP intensity using quantitative live-cell imaging, then cells were harvested and the % of GFP-positive cells was measured by FACS. A strong correlation between total GFP intensity and % GFP-positive cells was observed (FIG. 3A). The DTSs identified as hits (open circles) increased both the GFP intensity and the % GFP-positive cells compared to the Spacer negative control (FIG. 3A). […]

[2] = system: growth-arrested HepG2 cells; assay: Arrayed DTS screen in growth-arrested HepG2 cells; GFP intensity by live-cell imaging; type: cell-based; settings: 24 h post-transfection
Source text: as §1
Cell culture. HepG2 cells were plated into a 384-well plate and grown for 48 hours to achieve confluency. Cell media was removed and replaced with culture media supplemented with Aphidicolin (1 uM) using EL406 automated plate washer and dispenser, then cells were transfected with DTS containing 17.5 ng plasmids using Lipofectamine 3000 without supplement. Expression of GFP was monitored using a Biotek Cytation 5 cell imaging reader over 24 hours to evaluate DTS activity. Total GFP per well was calculated and averaged over 4 well replicates.
pDNAs containing various DTSs (Table 12) were transfected individually into growth-arrested HepG2 cells. Cell growth was inhibited to prevent dissolution of the nuclear envelope. GFP expression was quantified over a period of 24 h post-transfection by measuring GFP intensity using quantitative live-cell imaging. Statistical analysis and hierarchical clustering methods were used to easily differentiate strong DTSs from weak DTSs in a heatmap (FIG. 5A). […] DTS.203: CREB1, PPARA, ONECUT1, HNF4A, PPARA. DTS.233: HNF1A, NR113, PPARA, HNF1A, PPARA. DTS.276: FOXA1, HNF4A, HNF1A, HNF4A, HNF1A.
For the arrayed screen, pDNAs containing various DTSs were transfected individually into growth-arrested HepG2 cells. For the pooled screen, pDNAs containing various DTSs were pooled together and transfected as a pool into growth-arrested HepG2 cells. Cell growth was inhibited to prevent dissolution of the nuclear envelope, which improves the accuracy of measuring DTS activity related to nuclear translocation. For the arrayed screen, GFP protein expression was quantified 24 h post-transfection by measuring GFP intensity using quantitative live-cell imaging. For the pooled screen, mRNA abundance for each DTS variant was determined using RNA-seq by deconvoluting the read counts for each UMI. A strong correlation between protein expression in the arrayed screen and mRNA expression in the pooled screen was observed (FIG. 6). […] Pooled screening can thus be used to quickly and reliably identify strong DTSs.

B1: NFKB: benchmark DTS with NF-κB binding sites in pentameric repeat (SEQ ID NO: 140) (nucleic acid)
DNA: GGGACTTTCCAGATTACTACTGATAGGGACTTTCCAGATTACTACTGATAGGGACTTTCCAGATTACTACTGATAGGGACTTTCCAGATTACTACTGATAGGGACTTTCC
modifications: DNA nuclear targeting sequence within DNA cargo construct, further chemistry not given here
gene expression compared to the pDNA with no DTS [1]: robust increases | increase in GFP intensity compared to the pDNA with no DTS [1]: ~10 fold | GFP intensity / gene expression in arrayed screen compared to Spacer negative control [2]: robust increases
